# Laboratory results as given in US8865654B2, “Eye drops” (Santen Pharmaceutical Co., Ltd., priority 2009, dated 2014).
# No end group written: not given here.
# Assay: Stability test of eye drop (residual ratio by HPLC after storage at 40° C.)
# Type: physicochemical
# Settings: eye drop SSSR acetate 0.003% + FGLM hydrochloride 0.05% (w/v)
# Procedure: Each sample (100 mL, eye drop) containing the SSSR acetate at 0.003% (w/v) and the FGLM hydrochloride at 0.05% (w/v) was prepared at a pH in a range of 2.5 to 7.0 and stored at 40° C. The concentrations of the SSSR and the FGLM were measured by the HPLC method after 2 months storage, 3 months storage, and 6 months storage, and the residual ratios of the SSSR and the FGLM were determined, respectively.
substance,measurement,setting,value
"Phe-Gly-Leu-Met-NH2 (FGLM-NH2) [tetrapeptide at the C-terminal of Substance P, used as hydrochloride]",Residual ratio of FGLM,"pH 2.5, 40° C., 2 months",79%
same,Residual ratio of FGLM,"pH 2.5, 40° C., 3 months",72%
same,Residual ratio of FGLM,"pH 2.5, 40° C., 6 months",54%
same,Residual ratio of FGLM,"pH 3.0, 40° C., 2 months",91%
same,Residual ratio of FGLM,"pH 3.0, 40° C., 3 months",89%
same,Residual ratio of FGLM,"pH 3.0, 40° C., 6 months",79%
same,Residual ratio of FGLM,"pH 3.5, 40° C., 2 months",95%
same,Residual ratio of FGLM,"pH 3.5, 40° C., 3 months",94%
same,Residual ratio of FGLM,"pH 3.5, 40° C., 6 months",90%
same,Residual ratio of FGLM,"pH 4.0, 40° C., 2 months",96%
same,Residual ratio of FGLM,"pH 4.0, 40° C., 3 months",96%
same,Residual ratio of FGLM,"pH 4.0, 40° C., 6 months",94%
same,Residual ratio of FGLM,"pH 4.5, 40° C., 2 months",97%
same,Residual ratio of FGLM,"pH 4.5, 40° C., 3 months",97%
same,Residual ratio of FGLM,"pH 4.5, 40° C., 6 months",96%
same,Residual ratio of FGLM,"pH 5.0, 40° C., 2 months",97%
same,Residual ratio of FGLM,"pH 5.0, 40° C., 3 months",97%
same,Residual ratio of FGLM,"pH 5.0, 40° C., 6 months",97%
same,Residual ratio of FGLM,"pH 5.5, 40° C., 2 months",97%
same,Residual ratio of FGLM,"pH 5.5, 40° C., 3 months",97%
same,Residual ratio of FGLM,"pH 5.5, 40° C., 6 months",96%
same,Residual ratio of FGLM,"pH 6.0, 40° C., 2 months",96%
same,Residual ratio of FGLM,"pH 6.0, 40° C., 3 months",96%
same,Residual ratio of FGLM,"pH 6.0, 40° C., 6 months",95%
same,Residual ratio of FGLM,"pH 6.5, 40° C., 2 months",95%
same,Residual ratio of FGLM,"pH 6.5, 40° C., 3 months",95%
same,Residual ratio of FGLM,"pH 6.5, 40° C., 6 months",93%
same,Residual ratio of FGLM,"pH 7.0, 40° C., 2 months",94%
same,Residual ratio of FGLM,"pH 7.0, 40° C., 3 months",93%
same,Residual ratio of FGLM,"pH 7.0, 40° C., 6 months",90%
"Ser-Ser-Ser-Arg (SSSR; printed: Ser-Ser-Ser-Arg) [partial peptide of insulin-like growth factor I, used as acetate]",Residual ratio of SSSR,"pH 2.5, 40° C., 2 months",100%
same,Residual ratio of SSSR,"pH 2.5, 40° C., 3 months",100%
same,Residual ratio of SSSR,"pH 2.5, 40° C., 6 months",100%
same,Residual ratio of SSSR,"pH 3.0, 40° C., 2 months",99%
same,Residual ratio of SSSR,"pH 3.0, 40° C., 3 months",96%
same,Residual ratio of SSSR,"pH 3.0, 40° C., 6 months",98%
same,Residual ratio of SSSR,"pH 3.5, 40° C., 2 months",99%
same,Residual ratio of SSSR,"pH 3.5, 40° C., 3 months",96%
same,Residual ratio of SSSR,"pH 3.5, 40° C., 6 months",93%
same,Residual ratio of SSSR,"pH 4.0, 40° C., 2 months",98%
same,Residual ratio of SSSR,"pH 4.0, 40° C., 3 months",97%
same,Residual ratio of SSSR,"pH 4.0, 40° C., 6 months",92%
same,Residual ratio of SSSR,"pH 4.5, 40° C., 2 months",97%
same,Residual ratio of SSSR,"pH 4.5, 40° C., 3 months",97%
same,Residual ratio of SSSR,"pH 4.5, 40° C., 6 months",89%
same,Residual ratio of SSSR,"pH 5.0, 40° C., 2 months",97%
same,Residual ratio of SSSR,"pH 5.0, 40° C., 3 months",87%
same,Residual ratio of SSSR,"pH 5.0, 40° C., 6 months",81%
same,Residual ratio of SSSR,"pH 5.5, 40° C., 2 months",94%
same,Residual ratio of SSSR,"pH 5.5, 40° C., 3 months",86%
same,Residual ratio of SSSR,"pH 5.5, 40° C., 6 months",80%
same,Residual ratio of SSSR,"pH 6.0, 40° C., 2 months",90%
same,Residual ratio of SSSR,"pH 6.0, 40° C., 3 months",77%
same,Residual ratio of SSSR,"pH 6.0, 40° C., 6 months",68%
same,Residual ratio of SSSR,"pH 6.5, 40° C., 2 months",84%
same,Residual ratio of SSSR,"pH 6.5, 40° C., 3 months",67%
same,Residual ratio of SSSR,"pH 6.5, 40° C., 6 months",51%
same,Residual ratio of SSSR,"pH 7.0, 40° C., 2 months",70%
same,Residual ratio of SSSR,"pH 7.0, 40° C., 3 months",51%
same,Residual ratio of SSSR,"pH 7.0, 40° C., 6 months",35%
